Data on 17 substances can be found in patent publication US20050282740A1.

Where two headings read alike, the source gives them in different places.

Experiment [1] addresses proteins from 32P or 35S-labeled HeLa cell lysates. Description: GST pull-down from labeled HeLa lysates pretreated with CIP, PP1 and PP2A.
Experiment [2] addresses EQPLpTPVTDL. Description: fluorescence anisotropy, GST-WW-domain on fluorescein-labelled peptide.
The target in experiment [3] is WFYpSPFLE. The experiment is described as above.
The target of experiment [4] is WFYpSPFLE. Description: fluorescence anisotropy; low affinity site. Background: Polarisation of emitted light reports the rotation of a fluorescent probe.
The target of experiment [5] is WFYpSPFLE. Description: fluorescence anisotropy; high affinity site.
Experiment [6] addresses tau peptide (pT-231), SEQ ID NO: 20. Description: ELISA on tau peptides.
Experiment [7] has the same target. In words: ELISA on tau peptide. On the technique in general: ELISA stands for enzyme-linked immunosorbent assay.
Experiment [8] deals with WFYpSPFLE. Description: fluorescence anisotropy with fluorescein labeled Pintide; high affinity site.
For experiment [9], the target named is Amyloid Precursor Protein Peptide … (pT-668). In words: ELISA on amyloid precursor protein peptide; binder not labelled in the row, taken as Pin1.
Experiment [10] addresses tau peptide (pT-231), SEQ ID NO: 20. In words: ELISA on tau peptides. The source holds these as a separate data set.
The target in experiment [11] is WFYpSPFLE. In words: fluorescence anisotropy; Table 2 prints 1.0 for this pair.
The target in experiment [12] is tau peptide … (pT-231), SEQ ID NO: 29. Description: ELISA on tau peptide.
The target in experiment [13] is GST-Pin1 (human) (UniProt Q13526). Description: competition with MPM-2 antigens for GST-Pin1, pull-down and MPM-2 immunoblot.
The target of experiment [14] is GST-WW-domain of Pin1 (human) (UniProt Q13526). Description: competition with MPM-2 antigens for GST-WW-domain of Pin1, pull-down and MPM-2 immunoblot. (A western blot detects proteins with antibodies after separation by electrophoresis.)

The term Kd denotes the concentration at which binding is half-saturated. Higher therefore signals lower affinity.

In the case of “GST-Nedd4 WW-domain-1 (from UniProt P46935 249-282)”, the fold reduction of binding after pretreatment of lysates with Ser phosphatases in experiment [1] was found to be 10 fold.
Turning to “GST-Nedd4 WW-domain-2 (from UniProt P46935 405-438)”, the Kd amounted to 20000 nM in experiment [2] and 10000 nM in [3]. The fold reduction of binding after pretreatment of lysates with Ser phosphatases in experiment [1] came out at 10 fold.
Take “GST-Pin1 (from UniProt Q13526 1-163) (enzyme)”: the results for the Kd in [4] and in [5] were 13000 nM and 1200 nM, respectively.
The matching figures for “GST-Pin1^R14A (from UniProt Q13526 1-163) (enzyme)”: 13500 nM and 2000 nM.
With “GST-Pin1^S16A (from UniProt Q13526 1-163) (enzyme)”, the Kd was determined as 10500 nM in experiment [4] and 1200 nM in experiment [5].
Take “GST-Pin1^S16E (from UniProt Q13526 1-163) (enzyme)”: the Kd in experiment [4] was 10500 nM. This lies in the double-digit micromolar range.
For “GST-Pin1^S18E (from UniProt Q13526 1-163) (enzyme)”, the Kd was 12000 nM in experiment [4] and 1000 nM in experiment [5].
In experiment [4], “GST-Pin1^W34A (from UniProt Q13526 1-163) (enzyme)” yielded a Kd of 14000 nM. This lies in the double-digit micromolar range.
On the same count and under the same terms, as for “GST-Pin1^Y23A (from UniProt P08515 1-218; Q13526 1-163) (enzyme)”, the figure is 13500 nM.
As for “GST-WW-domain of Pin1 (from UniProt Q13526 1-54)”, the figures for the Kd in [2] and in [3] were 2200 nM and 1000 nM, respectively.
Turning to “Pin1 (from UniProt Q13526 1-163) (enzyme)”, the Kd in experiment [4] was 11000 nM; in experiment [5], 1200 nM; in experiment [6] it was 40 nM; in experiment [8], 1200 nM; in experiment [10], 25 nM. The figures for the Binding (OD @ 405 nm) in experiment [7] and in experiment [9] were 1.46 OD 405 nm and 1.81 OD 405 nm, respectively.
In experiment [4], “Pin1 PPIase domain (from UniProt Q13526 47-163) (enzyme)” displayed a Kd of 15000 nM.
Consider “Pin1 WW-domain (from UniProt Q13526 1-54)”, for which the Kd in experiment [5] came out at 1000 nM; in experiment [11], 1200 nM.
Turning to “Pin1^R14A (from UniProt Q13526 1-163) (enzyme)”, in [12], the Binding (OD @ 405 nm) worked out at 1.3 OD 405 nm. Further, in experiment [8], the equilibrium dissociation constant (Kd) stood at 2000 nM.
In turn, “Pin1^S16A (from UniProt Q13526 1-163) (enzyme)” gave a Kd in experiment [8] of 1200 nM.
On the same count and under the same terms, with “Pin1^Y23F (from UniProt Q13526 1-163) (enzyme)” the figure was 5000 nM.
With Pintide (WFYpSPRLKK) (peptide), in [13], the peptide concentration at which significant competition was detected was 50 µM and the peptide concentration of complete competition is 250 to 500 µM. In [14], this substance displayed a peptide concentration at which significant competition was detected of 50 µM and a peptide concentration of complete competition of 250 to 500 µM.
